Blank lines part the entries; values can stand above or below the molecule they belong to.
Tests used:
E0771 cells = assay: MTT assay / cell proliferation (confluence) assay, E0771; type: cell-based, mouse; settings: E0771, erlotinib 30 μM or 50 μM, 48 hours, MTT, FIG. 10
Description: (§1) Human and mouse breast cancer cells (1×10^4) were cultured in 10% FCS containing RPMI1640 medium on a 96-well flat bottom plate (Corning, Tewksbury, MA) at 37° C. for 24 hours, and then stimulated with IL-26 for 48 hours in the presence or absence of EGFR-TKI (gefitinib or erlotinib) at various concentrations, a signal inhibitor, and a neutralizing antibody. HUVECs were seeded in a 96-well flat bottom plate at 5×10^3 cells/well in a 2% FBS-containing EGM medium in which growth factors were reduced by half, and cultured at 37° C. for 12 hours. Thereafter, the medium was aspirated, and a recombinant human IL-26 dimer was adjusted to a final concentration of 10 ng/mL in a 2% FBS-containing EGM medium containing no growth factors, and added to the cells. The stimulation was started in the presence or absence of control human IgG and anti-human IL-26 antibodies, and the cells were cultured for 48 hours. Thereafter, a concentration of 20 μl or 1/10 of a 5 mg/ml MTT solution (Tetrazolium monosodium salt, WST-8) was added to each well, and the plate was allowed to stand for 1 hour. The absorbance at 450 nm/595 nm was measured using Microplate Reader (Bio-Rad, Hercules, CA) and data was analyzed with Microplate Manager 6 software (Bio-Rad).
(§2) Human and mouse breast cancer cells (1×10^4) were cultured in RPMI1640 medium containing 10% FCS for 24 hours at 37° C. on a 96-well flat bottom plate (Corning), and then stimulated with IL-26 (30 ng/ml) in the presence or absence of various concentrations of gefitinib and a neutralizing antibody. Cell proliferation was measured as cell confluence using IncuCyte ZOOM (Essen Bioscience, Ann Arbor, MI).

HCC70 cells = assay: MTT assay / cell proliferation (confluence) assay, HCC70; type: cell-based, human; settings: HCC70, erlotinib 30 μM or 50 μM, 48 hours, MTT, FIG. 10
Description: as §1, §2

MDA-MB468 cells = assay: MTT assay / cell proliferation (confluence) assay, MDA-MB468; type: cell-based, human; settings: MDA-MB-468, erlotinib 30 μM or 50 μM, 48 hours, MTT, FIG. 10
Description: as §1, §2

EphA3/IL-26 interaction = target: T1, EphA3/IL-26 interaction (Homo sapiens, UniProt Q9NPH9); assay: Immunofluorescence of rhIL-26-Alexa 488 and cell surface EphA3 on E0771 cells; type: cell-based, mouse; settings: E0771, antibodies 10 μg/ml, FIGS. 19 and 20
T1 construct: purchased R&D Systems; host or cells: IL-26 was purchased; EphA3 is endogenous on E0771 cells
T1 sequence (Q9NPH9 22-171): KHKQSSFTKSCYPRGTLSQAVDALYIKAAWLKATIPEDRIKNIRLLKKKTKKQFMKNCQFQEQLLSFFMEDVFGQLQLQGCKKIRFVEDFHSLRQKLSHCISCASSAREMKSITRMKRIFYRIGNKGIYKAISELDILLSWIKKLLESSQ
Description: E0771 and HCC70 cells (1×10^5) were cultured for 24 hours in RPMI1640 medium with 10% FCS on Lab-Tek chamber slides (Thermo Fisher Scientific). The cultured cells were stimulated with Alexa Fluor 488 labeled IL-26 (30 ng/ml) in the presence or absence of recombinant human and mouse EphA3-Ig for 1 hour. HCC70 cells were stimulated with IL-26 (30 ng/ml) in the presence or absence of gefitinib (40 μM), a signal inhibitor, and a neutralizing antibody for 24 hours. Subcutaneous tumor samples obtained from mice were fixed in 4% paraformaldehyde (Thermo Fisher Scientific) and embedded in OCT compound (Tissue-Tek (registered trademark), Sakura Finetek, Japan). Cells and slides were immunostained with each antibody and observed using a Zeiss inverted microscope and Axiovision 2.0 program (Carl Zeiss, Germany). The fluorescence intensity was quantified with Image-J software (NIH). The images were captured using a 100×400× objective.

[1] = tested on: phosphorylation of AKT, JNK and EphA3 in HCC70 cells; assay: Western blotting of phosphorylation in HCC70 cells; type: cell-based, human; settings: gefitinib 40 μM
Description: To analyze the phosphorylation of AKT, ERK, p38, JNK, STAT3, and EphA3, E0771 cells and HCC70 cells in 100 mm dishes were stimulated with IL-26 ([…]) and an anti-EphA3 polyclonal antibody (pAb) (10 μg/ml) for a specified period of time. After stimulation, the cells were lysed with a 2% protease inhibitor mixture (Sigma-Aldrich) and/or RIPA buffer added with 1×PhosSTOP (Roche Diagnostics, Tokyo, Japan), and a lysate was separated in a reduced state by SDS-PAGE (15 μg/lane). Immunoblots were performed using an anti-phosphorylated AKT antibody, an anti-phosphorylated ERK antibody, an anti-phosphorylated p38 antibody, an anti-phosphorylated JNK antibody, an anti-phosphorylated STAT3 antibody, and an anti-phosphorylated EphA3 antibody that recognize both human and mouse antigens. For reprobing, the membrane was immersed in a stripping buffer. After the stripping procedure, the membranes were re-probed with anti-pan-AKT, anti-pan-ERK, anti-pan-p38, anti-pan-JNK, anti-pan-STAT3, and anti-pan-EphA3 antibodies recognizing both human and mouse antigens. Images were taken using a C-Digit Blot scanner (MS Techno Systems, Inc., Japan).

[2] = target: T2, recombinant human IL-26/AK155 monomer, Cat #1375-IL/CF, R&D Systems (human, UniProt Q9NPH9 22-171); assay: ELISA, human IL-26 monomer coated at 0.5 µg/ml, antibody diluted 2-fold from 5 µg/ml, HRP anti-human kappa detection
T2 construct: also called recombinant human IL-26 monomer
T2 sequence (looked up): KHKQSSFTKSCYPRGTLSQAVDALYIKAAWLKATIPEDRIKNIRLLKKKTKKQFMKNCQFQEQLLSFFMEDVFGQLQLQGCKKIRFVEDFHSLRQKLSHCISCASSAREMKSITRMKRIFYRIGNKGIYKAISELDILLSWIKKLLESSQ
Description: (§3) The antigen binding of purified Ch69-10-IgG1, Hu69-10A-IgG1, and Hu69-10B-IgG1 was analyzed by ELISA. ELISA plates were coated overnight at 4° C. with the addition of 0.5 μg/ml human IL-26 (recombinant human IL-26/AK155 monomer, Cat #1375-IL/CF, R&D Systems, Minneapolis, MN) at 100 μl/well in 0.2 M sodium carbonate buffer (pH 9.4). Wells were washed with the wash buffer and blocked with the ELISA buffer. Subsequently, 100 μl/well of test antibody (mouse 69-10, Ch69-10-IgG1, Hu69-10A-IgG1, or Hu69-10B-IgG1) serially diluted 2-fold in RPMI medium starting at 5 μg/ml was added to measure a binding with IL-26. After incubation at room temperature for 1 hour and washing the plates with a wash buffer, a 1/2,000-diluted HRP-conjugated goat anti-human kappa chain polyclonal antibody (Bethyl Laboratories) (for Ch69-10-IgG1, Hu69-10A-IgG1 and Hu69-10B-IgG1) or a 1/2,000-diluted HRP-labeled goat anti-mouse kappa chain polyclonal antibody (Bethyl Laboratories) (for mouse 69-10) in ELISA buffer was added at 100 μl/well to detect bound antibodies. After incubation at room temperature for 30 min and washing with the wash buffer, 100 μl/well of ABTS substrate (Sigma Aldrich) was added to start color development and 100 μl/well of 2% oxalic acid was added to stop the color development. The absorbance was measured at 405 nm.

IL-26 = target: T3, IL-26 (Homo sapiens, UniProt Q9NPH9); assay: ELISA of antigen binding to human IL-26; parameters: purchased R&D Systems 1375-IL/CF; settings: plates coated with 0.5 μg/ml human IL-26 monomer; calculated using GraphPadPrism
T3 sequence (Q9NPH9 22-171): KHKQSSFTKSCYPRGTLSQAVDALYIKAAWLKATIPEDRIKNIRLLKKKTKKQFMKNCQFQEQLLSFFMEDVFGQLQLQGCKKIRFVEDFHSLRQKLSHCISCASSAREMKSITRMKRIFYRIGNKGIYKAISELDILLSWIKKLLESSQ
Description: as §3

[3] = HCC70, Ephrin A5 200 ng/ml, FIG. 26 left

inhibition of colocalization of IL-26 with EphA3 (EphA3/IL-26 interaction) (EphA3/IL-26 interaction): inhibited EphA3/IL-26 interaction
B1: mouse soluble EphA3: recombinant mouse EphA3 Fc chimeric protein purchased from R&D Systems (protein)
chain: ELSPQPSNEVNLLDSKTIQGELGWISYPSHGWEEISGVDEHYTPIRTYQVCNVMDHSQNNWLRTNWVPRNSAQKIYVELKFTLRDCNSIPLVLGTCKETFNLYYMESDDHGVKFREHQFTKIDTIAADESFTQMDLGDRILKLNTEIREVGPVNKKGFYLAFQDVGACVALVSVRVYFKKCPFTVKNLAMFPDTVPMDSQSLVEVRGSCVNNSKEEDPPRMYCSTEGEWLVPIGKCTCNAGYEERGFICQACRPGFYKASDGAAKCAKCPPHSSTQEDGSMNCRCENNYFRAEKDPPSMACARPPSAPRNVISNINETSVILDWSWPLDTGGRKDITFNIICKKCGWNVRQCEPCSPNVRFLPRQLGLTNTTVTVTDLLAHTNYTFEIDAVNGVSELSSPPRQYAAVSITTNQAAPSPVMTIKKDRTSRNSISLSWQEPEHPNGIILDYEVKYYQKQEQETSYTILRARGTNVTISSLKPDTTYVFQIRARTAAGYGTNSRKFEFETSPDSFSISGENSH
modifications: left off: a dimerising Fc or GST
notes: recombinant mouse EphA3 Fc chimeric protein purchased from R&D Systems

EC50 [2]: 0.299 µg/mL
B3: chimeric 69-10 IgG1/kappa antibody (Ch69-10-IgG1) (antibody, V domains shown)
VH: QVTLKESGPGILKPSQTLSLTCSFSGFSLSTSGMGVGWIRQPSGKGLEWLAHIWWDDDKYYNPSLKSQLTISKDTSRNQVFLKITSVDTADTATYYCVRGGITATHYYAMDYWGQGTSVTVSS
VL: DIQMTQSPASQSASLGESVTISCLASQTIGTWLSWYQQKPGKSPQLLIYAATSLADGVPSRFSGSGSGTKFSFKISSLQAEDFVSYYCQQLYSSPWTFGGGTKLEIK
notes: also called clone 1H8

EC50 [2]: 0.396 µg/mL
B6: Hu69-10B IgG1/kappa antibody (Hu69-10B-IgG1) (antibody, V domains shown)
VH: QVTLKESGPALVKPTQTLTLTCTFSGFSLSTSGMGVGWIRQPPGKALEWLAHIWWDDDKYYNPSLKSQLTISKDTSKNQVVLTMTNMDPVDTATYYCVRGGITATHYYAMDYWGQGTTVTVSS
VL: DIQMTQSPSSLSASVGDRVTITCLASQTIGTWLSWYQQKPGKAPKLLIYAATSLADGVPSRFSGSGSGTDFTFTISSLQPEDIATYYCQQLYSSPWTFGGGTKVEIK
notes: also called h69-10B; humanized anti-IL-26 antibody Hu69-10B

More lines, now with the values behind:

Molecule: C#Cc1cccc(Nc2ncnc3cc(OCCOC)c(OCCOC)cc23)c1 [erlotinib, Erlotinib, reference compound]
cell proliferation under erlotinib (E0771 cells): inhibitory effect of erlotinib on cell proliferation | cell proliferation under erlotinib (HCC70 cells): inhibitory effect of erlotinib on cell proliferation | cell proliferation under erlotinib (MDA-MB468 cells): inhibitory effect of erlotinib on cell proliferation

B2: Ephrin A5: known ligand of EphA3 (protein, UniProt P52803 21-203, looked up)
Ephrin-A5: QDPGSKAVADRYAVYWNSSNPRFQRGDYHIDVCINDYLDVFCPHYEDSVPEDKTERYVLYMVNFDGYSACDHTSKGFKRWECNRPHSPNGPLKFSEKFQLFTPFSLGFEFRPGREYFYISSAIPDNGRRSCLKLKVFVRPTNSCMKTIGVHDRVFDVNDKVENSLEPADDTVHESAEPSRGEN
phosphorylation of AKT [1, 3]: slightly enhanced | phosphorylation of JNK and EphA3 [1, 3]: little effect | dephosphorylation of EphA3, activation of AKT and JNK phosphorylation ([1]; HCC70, IL-26 30 ng/ml or Ephrin A5 200 ng/ml, FIG. 26): such changes were not observed

B4: Ch69-10-IgG1: chimeric 69-10 IgG1/kappa antibody with mouse 69-10 VH and VL and human constant regions (antibody, V domains shown)
VH: QVTLKESGPGILKPSQTLSLTCSFSGFSLSTSGMGVGWIRQPSGKGLEWLAHIWWDDDKYYNPSLKSQLTISKDTSRNQVFLKITSVDTADTATYYCVRGGITATHYYAMDYWGQGTSVTVSS
VL: DIQMTQSPASQSASLGESVTISCLASQTIGTWLSWYQQKPGKSPQLLIYAATSLADGVPSRFSGSGSGTKFSFKISSLQAEDFVSYYCQQLYSSPWTFGGGTKLEIK
EC50 values (binding to human IL-26, ELISA) (IL-26): 0.299 µg/mL

B5: Hu69-10A-IgG1/kappa antibody (Hu69-10A-IgG1) (antibody, V domains shown)
VH: QVTLKESGPALVKPTQTLTLTCTFSGFSLSTSGMGVGWIRQPPGKALEWLAHIWWDDDKYYNPSLKSQLTISKDTSKNQVVLTMTNMDPVDTATYYCVRGGITATHYYAMDYWGQGTTVTVSS
VL: DIQMTQSPSSLSASVGDRVTITCLASQTIGTWLSWYQQKPGKAPKLLIYAATSLADGVPSRFSGSGSGTKFTFTISSLQPEDIATYYCQQLYSSPWTFGGGTKVEIK
notes: also called h69-10A; humanized anti-IL-26 antibody Hu69-10A
EC50 [2]: 0.304 µg/mL

Reference: patent US20230398116A1, “Agent for reversing resistance to anticancer drugs” (Y'S AC CO., LTD., priority 2020, published 2023)
